The results in this text go back to patent US20200283521A1 (GRANULAR THERAPEUTICS, published 2020).

First the molecules themselves.
B1: TTP6 (antibody, IgG1, V domains shown)
VH: QVQLVQSGAEVKKPGASVKVSCKASGYTFTDYYMNWVRQAPGQGLEWMGRIYPGSGNTYYAQKFQGRVTMTRDTSTSTVYMELSSLRSEDTAVYYCARGVYYYDYWGQGTLVTVSS
VL: DIQMTQSPSSLSASVGDRVTITCRASQGVRTNLAWFQQKPGKAPKSLIYAASSLQSGVPSRFSGSGSGTDFTLTISSLQPEDFATYYCQQYNAYPHTFGGGTKVEIK
notes: IgG1
B2: MH5.31 (antibody, IgG1, V domains shown)
VH: B1 VH with D31N, S55A, Y101W, Y103F, Y105T
VL: B1 VL with V29I, N92A, A93N, H96R
notes: IgG1
B3: MH5.36 (antibody, IgG1, V domains shown)
VH: B1 VH with D31N, G54A, Y101W, Y103F, Y105E
VL: B1 VL with V29I, N92A, A93N, H96R
notes: IgG1
B4: TTP4 (antibody, IgG1, V domains shown)
VH: B1 VH
VL: B1 VL with A50S
notes: IgG1
B5: MH6 (antibody, IgG1, V domains shown)
VH: B1 VH
VL: B1 VL with V29I, A50S, A93S, H96K
notes: IgG1
B6: TTP2 (antibody, IgG1, V domains shown)
VH: B1 VH
VL: B1 VL with V29I, A93S
notes: IgG1
B7: MH5.32 (antibody, IgG1, V domains shown)
VH: B1 VH with D31N, S55A, Y101W, Y103F, Y105E
VL: B1 VL with V29I, N92A, A93N, H96R
notes: IgG1
B8: TTP3 (antibody, IgG1, V domains shown)
VH: B1 VH with Y103L
VL: B1 VL with A50S, H96K
notes: IgG1
B9: MH5-DI, IgG1-3M format (antibody, V domains shown)
VH: B1 VH
VL: B1 VL with V29I, N92A, A93N, H96R
B10: F-C5 (antibody, IgG1, V domains shown)
VH: B1 VH with Y103F, Y105E
VL: B1 VL with L54R, A93S, H96R
notes: IgG1; also called C-KIT-F-C5; F-05
B11: E-E10 (antibody, IgG1, V domains shown)
VH: B1 VH with Y101W, Y103F
VL: B1 VL with L33V, A50S, A93S, H96R
notes: IgG1; also called C-KIT-E-E10
B12: C-A7 (antibody, IgG1, V domains shown)
VH: B1 VH with M48I, Y103F, Y105S
VL: B1 VL with T31N, L33V, A50Y, A93S, H96R
notes: IgG1; also called C-KIT-C-A7
B13: D-A10 (antibody, IgG1, V domains shown)
VH: B1 VH with Y103F, Y105T
VL: B1 VL with L54R, A93S, H96R
notes: IgG1; also called C-KIT-D-A10
B14: F-F2 (antibody, IgG1, V domains shown)
VH: B1 VH with Y103Q
VL: B1 VL with L33V, L54R, A93S, H96R
notes: IgG1; also called C-KIT-F-F2
B15: C-B12 (antibody, IgG1, V domains shown)
VH: B1 VH with Y102E, Y103F
VL: B1 VL with T31N, S53Y, L54R, A93S, H96R
notes: IgG1; also called C-KIT-C-B12
B16: MH11 (antibody, IgG1, V domains shown)
VH: B1 VH
VL: B1 VL with V29I, H96R
notes: IgG1; also called C-KIT-MH11
B17: MH5.35 (antibody, IgG1, V domains shown)
VH: B1 VH with D31N, G54A, Y101W, Y103F, Y105T
VL: B1 VL with V29I, N92A, A93N, H96R
notes: IgG1; also called C-KIT-MH5.35
B18: MH5.34 (antibody, IgG1, V domains shown)
VH: B1 VH with D31N, G54A, Y101W, Y103F, Y105S
VL: B1 VL with V29I, N92A, A93N, H96R
notes: IgG1; also called C-KIT-MH5.34
B19: MH5.23 (antibody, IgG1, V domains shown)
VH: B1 VH with Y32F, G54A, Y101W, Y103F, Y105S
VL: B1 VL with V29I, N92A, A93N, H96R
notes: IgG1; also called C-KIT-MH5.23
B20: MH5.2 (antibody, IgG1, V domains shown)
VH: B1 VH with Y32F, S55T, Y101W
VL: B1 VL with V29I, N92A, A93N, H96R
notes: IgG1; also called C-KIT-MH5.2
B21: MH5.1 (antibody, IgG1, V domains shown)
VH: B1 VH with D31N, S55T, Y101W
VL: B1 VL with V29I, N92A, A93N, H96R
notes: IgG1; also called C-KIT-MH5.1
B22: MH5.24 (antibody, IgG1, V domains shown)
VH: B1 VH with Y32F, G54A, Y101W, Y103F, Y105T
VL: B1 VL with V29I, N92A, A93N, H96R
notes: IgG1; also called C-KIT-MH5.24
B23: MH5.4 (antibody, IgG1, V domains shown)
VH: B1 VH with Y32H, S55T, Y101W, Y103F, Y105S
VL: B1 VL with V29I, N92A, A93N, H96R
notes: IgG1
B24: MH5.6 (antibody, IgG1, V domains shown)
VH: B1 VH with Y32H, S55T, Y101W, Y103F, Y105E
VL: B1 VL with V29I, N92A, A93N, H96R
notes: IgG1
B25: MH5.10 (antibody, IgG1, V domains shown)
VH: B1 VH with Y32H, S55A, Y101W, Y103F, Y105E
VL: B1 VL with V29I, N92A, A93N, H96R
notes: IgG1
B26: MH5.15 (antibody, IgG1, V domains shown)
VH: B1 VH with Y32F, S55T, Y101W, Y103F, Y105S
VL: B1 VL with V29I, N92A, A93N, H96R
notes: IgG1
B27: MH13 (antibody, IgG1, V domains shown)
VH: B1 VH
VL: B1 VL with H96R
notes: IgG1
B28: MH12 (antibody, IgG1, V domains shown)
VH: B1 VH
VL: B1 VL with A93S, H96R
notes: IgG1
B29: MH10 (antibody, IgG1, V domains shown)
VH: B1 VH
VL: B1 VL with V29I, A50S, N92T, A93S, H96R
notes: IgG1
B30: MH8 (antibody, IgG1, V domains shown)
VH: B1 VH
VL: B1 VL with V29I, A50S, N92S, A93S, H96R
notes: IgG1

Residue numbers refer to the chain shown, from its start.

For the first assay, the target named is T1, human C-KIT-Fc (human, UniProt P10721 26-524).
T1 construct: also called biotinylated human C-KIT-Fc; not shown: Fc part not described
Nature of the assay: direct ELISA.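 Also: Plate-coated C-KIT-Fc (1 µg/ml) probed with antibodies for 1 hr, bound IgG detected via anti-human kappa-HRP and TMB, absorbance measured at 450 nm.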 Background: In an ELISA, binding on a coated surface is turned into a signal by an enzyme label.
Consider B1, for which the binding result is given as “binds”.

As for B2, the binding result is reported as “binds”.

For the molecule B3, the binding result was “binds”.

In the case of B4, the binding result is “binds”.

As for B5, the binding result is on record as “binds”.

In the case of B6, the binding result was “binds”.

As to B7, the binding result is reported as “binds”.

As for B8, the binding result is listed as “binds”.

A further assay deals with T2, human C-KIT, full length, on cells (human, UniProt P10721 26-976). Nature of the assay: cell-based or functional assay.
Turning to B9, the “TF-1 proliferation, fold less potent than h37M” value stood at 244 fold.

The target in another assay is T2, human C-KIT, full length, on cells. Nature of the assay: cell-based or functional assay. The source holds these as a separate data set.
B9: the “Human C-KIT CHO FabZAP IC50 (pM)” value is 12.6 pM, the “TF-1 FabZAP IC50 (pM)” value was determined as 53.7 pM and the “TF-1 proliferation IC50” value was 26.3 nM.

The target of the next assay is T3, cynomolgus monkey C-KIT, full length, on CHO-K1 cells (cynomolgus monkey). Nature of the assay: cell-based or functional assay.
For B9, the “Cyno C-KIT CHO FabZAP IC50 (pM)” value was 13.5 pM.

In another assay the target is T1, human C-KIT-Fc. Nature of the assay: HTRF competition vs Tb-h37M IgG1. In general terms: In TR-FRET formats the signal depends on donor and acceptor labels being close together.
The term IC50 denotes the concentration that inhibits the measured activity by half. Molecule B10 displayed an IC50 of 0.031 µg/mL.

The molecule B11 showed a concentration for half-maximal inhibition (IC50) of 0.031 µg/mL.

B12 came in with an IC50 of 0.037 µg/mL.

In turn, B13 gave an IC50 of 0.027 µg/mL.

In turn, B14 had an IC50 of 0.046 µg/mL.

Molecule B15 displayed an IC50 of 0.066 µg/mL.

B16: the IC50 was 0.051 µg/mL.

The next assay concerns the target T4, cynomolgus monkey C-KIT-Fc (cynomolgus monkey).
T4 construct: also called cyno C-KIT-Fc
Nature of the assay: HTRF competition vs Tb-h37M IgG1.
As to B10, the IC50 was determined as 0.079 µg/mL.

In the case of B11, the IC50 stood at 0.097 µg/mL.

On to B12, for which the IC50 was 0.081 µg/mL.

The molecule B13 registered an IC50 of 0.059 µg/mL.

Take B14: the IC50 came to 0.121 µg/mL.

With B15, the IC50 was determined as 0.166 µg/mL.

In turn, B16 showed a half-maximal inhibitory concentration (IC50) of 0.101 µg/mL.

In another assay the target is T1, human C-KIT-Fc. Nature of the assay: HTRF competition vs Tb-h37M IgG1. The source holds these as a separate data set.
As to B17, the half-maximal inhibitory concentration (IC50) was 2.05 µg/mL.

Take B18: the IC50 came out at 0.839 µg/mL.

Take B19: the IC50 was 2.02 µg/mL.

Molecule B20 gave an IC50 of 0.272 µg/mL.

Consider B21, for which the IC50 was 0.684 µg/mL.

B22: the IC50 stood at 2.2 µg/mL.

A further assay deals with T4, cynomolgus monkey C-KIT-Fc. Nature of the assay: HTRF competition vs Tb-h37M IgG1. This is another data set of the same source.
As for B17, the IC50 is 0.785 µg/mL.

B18: the IC50 is 0.532 µg/mL.

The molecule B19 displayed a half-inhibitory concentration (IC50) of 3.26 µg/mL.

As to B20, the IC50 amounted to 0.254 µg/mL.

Molecule B21 returned an IC50 of 0.633 µg/mL.

B22 displayed an IC50 of 2.74 µg/mL.

The next assay addresses T1, human C-KIT-Fc. Nature of the assay: direct titration ELISA on coated C-KIT-Fc, IgG1 format.
Take B23: the binding result is listed as “binds”.

Regarding B24, the binding result is on record as “binds”.

Regarding B25, the binding result was “binds”.

In the case of B26, the binding result is given as “binds”.

The next assay addresses T2, human C-KIT, full length, on cells. Nature of the assay: flow cytometry, C-KIT-transfected CHO-K1 cells, IgG1 format. (Flow cytometry measures light scatter and fluorescence of single cells or particles in a stream.)
Regarding B27, the binding result is “binds”.

As for B1, the binding result is “binds”.

Consider B28, for which the binding result is “binds”.

With B29, the binding result is on record as “binds”.

Regarding B30, the binding result was “binds”.

In the case of B4, the binding result was “binds”.

Regarding B5, the binding result is “binds”.

As to B6, the binding result is “binds”.

Regarding B8, the binding result was “binds”.

The target is the same in another assay. Described as above. This is another data set of the same source.
One may read the EC50 (read off the curve) as the concentration needed to bring the measured effect to its halfway point. As for B17, the “EC50 (read off the curve)” value was ~0.1 µg/mL.

As to B18, the “EC50 (read off the curve)” value was ~0.2 µg/mL.

Turning to B19, the “EC50 (read off the curve)” value is ~0.2 µg/mL.

As for B20, the “EC50 (read off the curve)” value was ~0.2 µg/mL.

In the case of B21, the “EC50 (read off the curve)” value was ~0.2 µg/mL.

Regarding B22, the “EC50 (read off the curve)” value was ~0.2 µg/mL.

The target of another assay is T3, cynomolgus monkey C-KIT, full length, …. The assay is described as above.
Consider B17, for which the 50% effective concentration (EC50 (read off the curve)) is ~0.2 µg/mL.

For B18, the “EC50 (read off the curve)” value is ~0.2 µg/mL.

Turning to B20, the “EC50 (read off the curve)” value was ~0.2 µg/mL.

In the case of B21, the “EC50 (read off the curve)” value was ~0.2 µg/mL.

On to B22, for which the “EC50 (read off the curve)” value was ~0.2 µg/mL.

The next assay concerns the target T1, human C-KIT-Fc. Nature of the assay: HTRF competition on human C-KIT-Fc against terbium-labelled h37M IgG1.
For the molecule B27, the binding result is “binds”.

As for B28, the binding result was “binds”.

Take B29: the binding result is “binds”.

As for B30, the binding result is listed as “binds”.
